Data as given in EP2105501A1 (Immatics Biotechnologies GmbH, dated 2009).

Target: T1, HLA-A*0205 (human)
T1 construct: Native HLA immunoprecipitated from shock-frozen tumor tissue
Experiment: HLA immunoprecipitation from glioblastoma tissue, peptide elution, ESI-LCMS/MS

binding result: binds
B1: PTP-001 (peptide)
peptide: ALTTLMHQL
notes: Natural HLA ligand eluted from glioblastoma tissue
